Results reported in patent publication US20240287161A1 (NATIONAL UNIVERSITY CORPORATION TOTTORI UNIVERSITY, published 2024).

How the values were obtained:
[1] = target: T1, HCoV-229E trimeric S protein (amino acids 12-1109) with T4 foldon, histidine tag and strep-tag (HCoV-229E, UniProt P15423 12-1112); assay: ELISA on coated S-trimeric antigen, anti-human IgG-HRP [Human IgG1, NT-108]
T1 chain: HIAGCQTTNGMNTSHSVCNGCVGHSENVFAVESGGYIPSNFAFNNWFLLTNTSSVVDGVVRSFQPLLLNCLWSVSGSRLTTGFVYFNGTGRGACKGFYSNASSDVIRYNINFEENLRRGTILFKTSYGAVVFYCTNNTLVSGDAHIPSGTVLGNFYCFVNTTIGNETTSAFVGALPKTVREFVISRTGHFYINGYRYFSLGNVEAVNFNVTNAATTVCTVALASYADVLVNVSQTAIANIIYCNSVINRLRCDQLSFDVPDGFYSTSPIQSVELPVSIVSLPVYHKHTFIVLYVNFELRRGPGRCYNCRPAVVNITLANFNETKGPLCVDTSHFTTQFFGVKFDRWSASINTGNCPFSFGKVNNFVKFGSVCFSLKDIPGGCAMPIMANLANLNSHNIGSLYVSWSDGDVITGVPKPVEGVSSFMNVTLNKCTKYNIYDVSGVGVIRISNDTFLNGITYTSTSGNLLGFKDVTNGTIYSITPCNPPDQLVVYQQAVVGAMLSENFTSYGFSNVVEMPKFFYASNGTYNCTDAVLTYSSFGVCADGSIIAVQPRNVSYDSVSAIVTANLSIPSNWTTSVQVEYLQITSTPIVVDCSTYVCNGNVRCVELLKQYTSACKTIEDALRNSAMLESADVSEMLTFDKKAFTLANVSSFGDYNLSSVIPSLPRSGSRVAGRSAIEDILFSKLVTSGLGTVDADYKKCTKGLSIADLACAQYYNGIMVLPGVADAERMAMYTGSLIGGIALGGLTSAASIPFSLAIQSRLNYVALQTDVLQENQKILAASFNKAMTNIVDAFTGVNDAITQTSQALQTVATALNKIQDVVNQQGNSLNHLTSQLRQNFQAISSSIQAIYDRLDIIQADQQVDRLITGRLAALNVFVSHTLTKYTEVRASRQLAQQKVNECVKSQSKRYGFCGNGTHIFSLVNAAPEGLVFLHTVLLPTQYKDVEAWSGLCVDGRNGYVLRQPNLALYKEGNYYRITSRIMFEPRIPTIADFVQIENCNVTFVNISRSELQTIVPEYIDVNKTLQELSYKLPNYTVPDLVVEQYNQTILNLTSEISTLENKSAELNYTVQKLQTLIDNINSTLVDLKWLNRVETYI

[2] = target: T2, HCoV-HKU1 trimeric S protein (amino acids 13-1293) with T4 foldon, histidine tag and strep-tag (HCoV-HKU1, UniProt Q5MQD0 13-1297); assay: as above
T2 sequence: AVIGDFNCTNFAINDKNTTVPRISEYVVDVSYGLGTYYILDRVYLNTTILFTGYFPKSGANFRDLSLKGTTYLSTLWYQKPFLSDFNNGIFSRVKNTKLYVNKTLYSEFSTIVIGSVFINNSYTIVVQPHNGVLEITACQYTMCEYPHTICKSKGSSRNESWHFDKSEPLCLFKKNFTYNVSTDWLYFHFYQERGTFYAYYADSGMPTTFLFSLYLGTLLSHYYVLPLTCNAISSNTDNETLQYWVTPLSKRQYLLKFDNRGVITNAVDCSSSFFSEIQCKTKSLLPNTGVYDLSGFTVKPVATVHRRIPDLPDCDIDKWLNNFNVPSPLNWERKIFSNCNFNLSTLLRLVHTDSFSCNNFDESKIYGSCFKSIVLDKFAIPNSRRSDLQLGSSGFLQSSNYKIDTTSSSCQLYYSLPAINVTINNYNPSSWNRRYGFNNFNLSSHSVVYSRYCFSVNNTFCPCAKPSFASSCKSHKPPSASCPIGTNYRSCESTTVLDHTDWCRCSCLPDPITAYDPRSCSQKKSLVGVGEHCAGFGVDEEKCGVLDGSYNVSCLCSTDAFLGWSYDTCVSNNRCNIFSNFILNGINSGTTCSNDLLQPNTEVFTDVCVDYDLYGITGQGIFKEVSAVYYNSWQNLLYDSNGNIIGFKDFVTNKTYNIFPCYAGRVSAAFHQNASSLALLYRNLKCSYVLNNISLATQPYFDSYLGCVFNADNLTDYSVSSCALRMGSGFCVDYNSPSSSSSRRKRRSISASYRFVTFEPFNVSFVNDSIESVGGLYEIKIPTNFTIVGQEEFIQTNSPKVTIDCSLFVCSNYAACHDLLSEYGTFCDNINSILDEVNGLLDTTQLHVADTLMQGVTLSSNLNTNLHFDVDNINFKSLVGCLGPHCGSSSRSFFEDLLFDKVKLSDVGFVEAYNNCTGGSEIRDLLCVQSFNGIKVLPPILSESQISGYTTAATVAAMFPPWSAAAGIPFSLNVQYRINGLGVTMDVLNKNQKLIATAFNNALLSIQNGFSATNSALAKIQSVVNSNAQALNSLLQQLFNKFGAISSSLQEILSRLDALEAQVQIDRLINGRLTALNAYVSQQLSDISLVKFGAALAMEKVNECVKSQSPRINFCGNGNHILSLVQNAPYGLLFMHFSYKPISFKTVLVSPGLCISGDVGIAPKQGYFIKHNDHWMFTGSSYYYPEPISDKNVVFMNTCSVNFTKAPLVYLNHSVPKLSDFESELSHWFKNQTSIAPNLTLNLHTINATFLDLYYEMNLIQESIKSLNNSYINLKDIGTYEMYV

B1: NT-108 (recombinant human IgG1/kappa antibody) (antibody, V domains shown)
VH: EVQLQQSGPGLVKPSQTLSLTCSISGDSVSSNSAAWNWIRQSPSRGLEWLGRTYYRSKWYNDYAGTVKSRIAINPDTSKNQFSLHLNSVTPEDTAVYFCARVISVAGYAFDIWGQGTMVTVSS
VL: EIVLTQSPGTLSLSPGERATLSCRASQSVSSTFLAWYQQKPGQAPRLLIYGASYMATGIPDRFSGSGSGTDFTLTISRLEPEDFAVYYCQQYGSSLTFGGGTKLEIK
B1: no binding (tested: 1000 ng/ml) [1]; no binding (tested: 1000 ng/ml) [2].
